1 substance from US20030219858A1 can be followed below.

The target in the test is human heteromultimeric ASIC-2S.2 channel (human ASIC2A + human ASIC3) (human) (UniProt Q16515). Nature of the test: cell-based or functional assay.
human heteromultimeric ASIC-2S.2 channel (human ASIC2A + human ASIC3) (human), sequence (Q16515 whole entry, chain 1 of 2): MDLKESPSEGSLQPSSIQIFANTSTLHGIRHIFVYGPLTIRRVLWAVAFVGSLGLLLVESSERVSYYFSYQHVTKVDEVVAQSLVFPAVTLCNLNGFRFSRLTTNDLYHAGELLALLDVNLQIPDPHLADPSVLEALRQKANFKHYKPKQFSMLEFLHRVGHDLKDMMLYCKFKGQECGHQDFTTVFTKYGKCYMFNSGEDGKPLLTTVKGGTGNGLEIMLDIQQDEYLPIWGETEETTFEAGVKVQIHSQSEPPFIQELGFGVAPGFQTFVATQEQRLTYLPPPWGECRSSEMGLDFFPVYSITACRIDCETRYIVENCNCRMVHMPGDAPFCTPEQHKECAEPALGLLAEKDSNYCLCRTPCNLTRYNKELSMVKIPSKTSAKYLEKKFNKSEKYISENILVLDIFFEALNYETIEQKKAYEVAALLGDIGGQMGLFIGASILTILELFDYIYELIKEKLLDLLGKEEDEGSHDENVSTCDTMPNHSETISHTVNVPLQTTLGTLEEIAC
human heteromultimeric ASIC-2S.2 channel (human ASIC2A + human ASIC3) (human), sequence (chain, as listed by the source, chain 2 of 2): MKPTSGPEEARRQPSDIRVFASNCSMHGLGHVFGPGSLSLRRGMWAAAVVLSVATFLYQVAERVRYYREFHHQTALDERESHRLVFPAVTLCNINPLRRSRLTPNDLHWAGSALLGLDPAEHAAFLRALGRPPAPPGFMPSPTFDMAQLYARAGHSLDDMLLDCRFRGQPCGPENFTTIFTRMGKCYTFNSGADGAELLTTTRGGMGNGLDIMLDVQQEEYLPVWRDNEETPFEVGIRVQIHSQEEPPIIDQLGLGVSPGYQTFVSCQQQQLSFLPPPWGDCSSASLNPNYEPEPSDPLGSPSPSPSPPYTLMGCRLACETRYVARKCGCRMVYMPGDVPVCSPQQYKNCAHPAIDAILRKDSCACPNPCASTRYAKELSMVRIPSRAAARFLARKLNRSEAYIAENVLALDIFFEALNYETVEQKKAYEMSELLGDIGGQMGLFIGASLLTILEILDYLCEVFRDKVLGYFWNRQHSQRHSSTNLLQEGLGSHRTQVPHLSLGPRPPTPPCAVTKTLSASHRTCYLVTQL

With “NPFF (from UniProt O15130 69-76) (peptide)”, the EC50 of potentiation of currents induced by pH 4 worked out at 2 µM.
